Experimental data reported in the supplement of paper PMC10724198.
± gives the standard deviation of the averaged measurements.

Test system: Saccharomyces cerevisiae
Assay: protein stability index of tFT-peptide fusion (C-terminal peptide) (PSI (0-1 scale)); higher = more stable (slower turnover)
Details: temperature: 30 C
Method: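 MPS profiling in S. cerevisiae of the yeast C-terminome library: the last 12 aa of each annotated ORF are fused to the C-terminus of a sfGFP-mCherry timer, after a GGGS linker. Cells are FACS-sorted into 8 mCherry/sfGFP bins and deep-sequenced. PSI runs from 0 (unstable) to 1 (stable); wild type and das1Δ backgrounds, two technical replicates each.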

[1] = genetic background: das1 deletion

| Sequence | protein stability index [1] | protein stability index (genetic background: wild type) |
| --- | --- | --- |
| DEEKQLSLSDMI [YOR186W C-terminal 12 aa] | 0.692 ± 0.03 | 0.672 ± 0.019 |
| SLSLRNHNSSQL [CLN1 C-terminal 12 aa] | 0.708 ± 0.024 | 0.701 ± 0.017 |
| HAYVIEKLPDVF [FCF1 C-terminal 12 aa] | 0.719 ± 0.0048 | 0.698 ± 0.016 |
| AGTLDGRLAIWY [BPH1 C-terminal 12 aa] | 0.6943 ± 0.0032 | 0.686 ± 0.014 |
| KWQARQRGLQRF [PMP1 C-terminal 12 aa] | 0.69535 ± 0.00066 | 0.704 ± 0.018 |
| LAPPPQKQSSSD [GRH1 C-terminal 12 aa] | 0.758 ± 0.058 | 0.729 ± 0.029 |
| INDWLSSWKRSK [CRR1 C-terminal 12 aa] | 0.756 ± 0.017 | 0.727 ± 0.021 |
| MALLAMVMGVDM [URA2 C-terminal 12 aa] | 0.6024 ± 0.0046 | 0.676 ± 0.13 |
| TPGGGGFGQYKD [OXP1 C-terminal 12 aa] | 0.7088 ± 0.00061 | 0.677 ± 0.03 |
| QNQDEPITENFE [TUB2 C-terminal 12 aa] | 0.718 ± 0.016 | 0.718 ± 0.025 |
| DVYVLFYERVYD [UBP7 C-terminal 12 aa] | 0.682 ± 0.036 | 0.682 ± 0.03 |
| DDSSSTDTEERE [SSK2 C-terminal 12 aa] | 0.675 ± 0.028 | 0.683 ± 0.029 |
| AFFAVILLYIPG [YKR073C C-terminal 12 aa] | 0.287 ± 0.027 | 0.302 ± 0.018 |
| TNVGLKLIAIAK [PPM2 C-terminal 12 aa] | 0.655 ± 0.034 | 0.649 ± 0.017 |
| DIIKSIGDSYSI [NSE3 C-terminal 12 aa] | 0.69 ± 0.03 | 0.734 ± 0.076 |
| IEKADIVQQAIR [SLP1 C-terminal 12 aa] | 0.691 ± 0.008 | 0.66 ± 0.033 |
| TLVFDVELLKVN [FPR1 C-terminal 12 aa] | 0.6084 ± 0.0029 | 0.251 ± 0.033 |
| KTIDNLKALMKN [PFD1 C-terminal 12 aa] | 0.696 ± 0.0081 | 0.721 ± 0.019 |
| NKAPSWLLTALE [OCA1 C-terminal 12 aa] | 0.6834 ± 0.0031 | 0.69 ± 0.027 |
| FHPLFYCSALVF [YIL142C-A C-terminal 12 aa] | 0.256 ± 0.016 | 0.277 ± 0.015 |
| WYSRKNINSRFE [MTR10 C-terminal 12 aa] | 0.714 ± 0.059 | 0.712 ± 0.046 |

| Sequence | protein stability index [1] | protein stability index (genetic background: wild type) |
| --- | --- | --- |
| RFAKGGKFVEVD [ATP18 C-terminal 12 aa] | 0.6904 ± 0.001 | 0.6675 ± 0.0047 |
| WGIYEELVKRFM [HEM25 C-terminal 12 aa] | 0.7094 ± 0.0066 | 0.707 ± 0.013 |
| EKTVNFIKTFGV [GUT2 C-terminal 12 aa] | 0.6956 ± 0.0026 | 0.71 ± 0.035 |
| SPKEEKRFKFKL [YGR127W C-terminal 12 aa] | 0.739 ± 0.046 | 0.801 ± 0.047 |
| EREGGDEHDDMA [PWP1 C-terminal 12 aa] | 0.684 ± 0.015 | 0.708 ± 0.035 |
| GLLRKGLVKRDI [YHR193C-A C-terminal 12 aa] | 0.6883 ± 0.0029 | 0.677 ± 0.033 |
| FVLPTWAAKELN [SPE3 C-terminal 12 aa] | 0.7195 ± 0.0063 | 0.69 ± 0.03 |
| WLDKHTTTEAKP [YJU3 C-terminal 12 aa] | 0.7087 ± 0.0036 | 0.705 ± 0.0089 |
| PPKSIFDTDDDD [RCN1 C-terminal 12 aa] | 0.741 ± 0.025 | 0.714 ± 0.054 |
| VTAGKAKFVLYN [SUN4 C-terminal 12 aa] | 0.665 ± 0.0087 | 0.445 ± 0.012 |
| GPSIIMTLYLTL [ARE1 C-terminal 12 aa] | 0.496 ± 0.021 | 0.5045 ± 0.0024 |
| RLRAKSPYAWDD [YHK8 C-terminal 12 aa] | 0.729 ± 0.0089 | 0.721 ± 0.053 |
| VQHDPSVHTNQL [MAE1 C-terminal 12 aa] | 0.6923 ± 0.0028 | 0.664 ± 0.029 |
| ANSLDAIFLKSK [YNL150W C-terminal 12 aa] | 0.6777 ± 0.0042 | 0.669 ± 0.021 |
| TLIAAGIIRTGR [STI1 C-terminal 12 aa] | 0.727 ± 0.025 | 0.702 ± 0.016 |
| VQCVCFNVEMRL [YIL046W-A C-terminal 12 aa] | 0.662 ± 0.015 | 0.676 ± 0.091 |
| VATADIKNEDKN [BNA2 C-terminal 12 aa] | 0.671 ± 0.021 | 0.731 ± 0.066 |
| NDGTSANSACSC [VPS21 C-terminal 12 aa] | 0.715 ± 0.012 | 0.691 ± 0.045 |
| VRDHFGVINSIW [YJL070C C-terminal 12 aa] | 0.715 ± 0.051 | 0.694 ± 0.011 |
| EVENDRQIHRML [IDI1 C-terminal 12 aa] | 0.6924 ± 0.0013 | 0.682 ± 0.01 |
| SLDKMAQQLGVE [YKR005C C-terminal 12 aa] | 0.698 ± 0.016 | 0.677 ± 0.036 |

| Sequence | protein stability index [1] | protein stability index (genetic background: wild type) |
| --- | --- | --- |
| ERRLNAIINGEV [YTH1 C-terminal 12 aa] | 0.689 ± 0.024 | 0.685 ± 0.034 |
| RKRLRTLDNWYR [RNH201 C-terminal 12 aa] | 0.7355 ± 0.0016 | 0.7169 ± 0.0049 |
| LLPGNTNLPWTS [ERG12 C-terminal 12 aa] | 0.7093 ± 0.0045 | 0.742 ± 0.08 |
| NMIIDTLGGNEK [COQ6 C-terminal 12 aa] | 0.735 ± 0.019 | 0.692 ± 0.013 |
| ETPLLYNDTHTP [IES5 C-terminal 12 aa] | 0.696 ± 0.042 | 0.695 ± 0.009 |
| LECTPIINLFIV [MNL1 C-terminal 12 aa] | 0.644 ± 0.0069 | 0.13125 ± 2.3e-05 |
| TYFSFHILFHNL [YOR309C C-terminal 12 aa] | 0.614 ± 0.0097 | 0.221 ± 0.013 |
| YPFTISYISPPY [YPR169W-A C-terminal 12 aa] | 0.71 ± 0.067 | 0.702 ± 0.025 |
| MIWKWLIEDKKN [MRS2 C-terminal 12 aa] | 0.72 ± 0.011 | 0.69 ± 0.052 |
| YKNLRKTSSSHL [NPY1 C-terminal 12 aa] | 0.843 ± 0.028 | 0.84 ± 0.031 |
| IREFPEYFAAQA [RPL10 C-terminal 12 aa] | 0.682 ± 0.015 | 0.671 ± 0.03 |
| TLKSTSSTNSPD [SMP1 C-terminal 12 aa] | 0.703 ± 0.011 | 0.6844 ± 0.006 |
| MDTLEEMFTEEP [PRP42 C-terminal 12 aa] | 0.726 ± 0.027 | 0.7107 ± 0.0067 |
| SSEEGYYIAGSI [IRC23 C-terminal 12 aa] | 0.8201 ± 0.0072 | 0.81 ± 0.01 |
| LLRPRSPVQKAQ [KAR4 C-terminal 12 aa] | 0.69 ± 0.025 | 0.658 ± 0.064 |
| FILELKNICKCT [MOH1 C-terminal 12 aa] | 0.703 ± 0.026 | 0.525 ± 0.046 |
| AIAKSIPKRVGL [PUT1 C-terminal 12 aa] | 0.718 ± 0.035 | 0.6998 ± 0.0057 |
| RRKKKLMDELNL [ISY1 C-terminal 12 aa] | 0.703 ± 0.04 | 0.669 ± 0.017 |
| MKHTKKLQLDKV [PKP2 C-terminal 12 aa] | 0.69 ± 0.007 | 0.696 ± 0.024 |
| AGALAVAAAYLL [CWP1 C-terminal 12 aa] | 0.693 ± 0.013 | 0.669 ± 0.0081 |
| SDAVAEANDIDD [TOM20 C-terminal 12 aa] | 0.673 ± 0.051 | 0.72 ± 0.047 |

| Sequence | protein stability index [1] | protein stability index (genetic background: wild type) |
| --- | --- | --- |
| ENIEVILSNGRM [SNF12 C-terminal 12 aa] | 0.676 ± 0.03 | 0.689 ± 0.037 |
| GGFFKKLAQLLK [MDG1 C-terminal 12 aa] | 0.704 ± 0.015 | 0.719 ± 0.07 |
| QTILFAAFLPPA [GPI18 C-terminal 12 aa] | 0.696 ± 0.025 | 0.682 ± 0.008 |
| PLTRFHSCPITA [ECM13 C-terminal 12 aa] | 0.275 ± 0.035 | 0.301 ± 0.013 |
| LKSQSLTTGWSL [MNS1 C-terminal 12 aa] | 0.7194 ± 0.0048 | 0.741 ± 0.058 |
| QKEPNDQIDVEE [GPN3 C-terminal 12 aa] | 0.673 ± 0.025 | 0.698 ± 0.042 |
| RQTKAFISKFMT [DBR1 C-terminal 12 aa] | 0.7208 ± 0.0027 | 0.682 ± 0.05 |
| KTLWSRFIEHFV [MIM2 C-terminal 12 aa] | 0.746 ± 0.022 | 0.671 ± 0.023 |
| STSCDVIQSRNA [MET22 C-terminal 12 aa] | 0.71 ± 0.03 | 0.692 ± 0.0075 |
| LPAEILSNEPLK [YML119W C-terminal 12 aa] | 0.688 ± 0.01 | 0.692 ± 0.071 |
| NNLQSFYFDNSN [BCK2 C-terminal 12 aa] | 0.689 ± 0.018 | 0.706 ± 0.03 |
| AREQLYEKLEQA [MIC27 C-terminal 12 aa] | 0.697 ± 0.007 | 0.6716 ± 0.0039 |
| NKKRLSVDYILT [USV1 C-terminal 12 aa] | 0.689 ± 0.05 | 0.679 ± 0.022 |
| VWCSVKKRLLEK [TIM23 C-terminal 12 aa] | 0.724 ± 0.016 | 0.732 ± 0.037 |
| RSHRKQPLKRKD [BRE5 C-terminal 12 aa] | 0.69 ± 0.025 | 0.645 ± 0.019 |
| RVKSLKVGRKSQ [PAL1 C-terminal 12 aa] | 0.688 ± 0.02 | 0.684 ± 0.0082 |
| EIIDNWEKYEQS [FAS1 C-terminal 12 aa] | 0.706 ± 0.011 | 0.7 ± 0.04 |
| AEELWADIVGSA [TRP2 C-terminal 12 aa] | 0.75126 ± 0.00045 | 0.684 ± 0.019 |
| DDDEFDEDEFED [PAH1 C-terminal 12 aa] | 0.695 ± 0.03 | 0.7188 ± 0.0021 |
